Data: article PMC2973827

Target: SARS-CoV nsp12 (RdRp) (SARS-coronavirus, UniProt P0C6X7 4370-5301)
Assay: EMSA; no Zn2+
Conditions: protein: recombinant; tags: C-terminal His6 (plasmid pASK3-Ub-nsp12-CHis6, ubiquitin fusion vector); label: 5' 32P

B1: SAV557R/SAV481R primed template duplex (dsRNA)
RNA 1: GCUAUGUGAGAUUAAGUUAU
RNA 2: UUUUUUUUUUAUAACUUAAUCUCACAUAGC
B1: binds.
